Here are results for 18 sequences from a protein production outcome set (Wang et al. 2014).

The nature of the data set: label from the status in PepcDB records.

As to “MRRLPPWMLGGASTGEAAARNGSQPEAPKTKAEKRPKRVQKTKEKDLNLKSDEPKRVPRKIREEAKRSPEVIQSVTVPEDDDLTVDDLLSFANEVM”, the protein production entry was “failed”. With “MRRLQREIRTYDEEQLKQVREELTTYDLMTRNALLQTAHDLRAKVEQEAVPEGEQATTYLKAVVDDRRHELSVFLPATQASAALENVRRHLVNQILSIGGKAKKLETERCAAERHLKRPTVEVVQREHDAHLRRLRQWQEVQSRFQTWHTYEQAYARWPDLAAAFDSGPTEAATRVATELHKRTLATMQEQDRWREFLRQATEQEHQRQLTPPEDDLPEDDLEEDTWAAAESSEPSGSLFSRLGHTLSRLMAPPGPDEVPSAATAPRETDGWDDVQPQIAPDPRSTVPGLWDDADDLTPVSPVAPARPAPSPPVYDAAAVPALDIDFSAAPRRSRTPAEQMPDPFARAARVRSARRTTTPLVPVPQQLDAAEMPAPRPARTPPGRPATAGNVAPPSAPRTARPPSPTLADFDLWDDEEDMPFGPPATPAPAAASVPQMVPTPRAAARPTPRPVSSPGPSPVPVSPASASVSHAAPWEEPAAGRPAPAPSGVSRRGATRLALPSEQLLDPLPNGARNTVQMDLDAERRGDMINETLRQFGLQAKVVDLARGPTVTRYEIEPAPGEKISRIASLSNDLARALAVGGVRVEAPVPGKSVIGLEVPNAEREPVTFHQATANPAFKNTRAKLPIILGKSIDGSMMVGDLAKMPHLLVAGSTGSGKSVCVNTLITSLLYRYLPTELRFVMIDPKMVELTPYDGIPHLVRPVVTNPADAAGVLLGAVAHMERRYKMMSQVGAKNLEQFNAKMRAVGEVELPHLVIIIDELADLMITSPKEVESAIMRLAQMARATGMHLILATQRPSVDILTSLIKVNIPARIAFAVSSSHDSRTILDTTGAERLTGMGDMLFYQPGLVKPLRLQGPYISEAESARITDELRRMMFDDDFIEAYGADFEGMISSSGPGGDRSQLDFSDPLLRQAALVCIEEGQGSVSRLQRRLSVGHARAGKLMDLLEAMNIVGPHQGSKPREVLIHEADLPEYFGK”, the protein production result is “failed”. Under “MRRRDARPQGTGTAGPTGARHGEDADGTPRHMNAPKGLPLWLKIVTGVVSVALVAGVAFAAFWFIRLQTNITKAPLSAGETRNAGDPLVDDKTDRLQILILGSDTRDGKNAEYGSTEDSTGYGHSDVMMLLDISADNKRVNVLSFPRDLLVDVPQCTDRTNNQTFPARSGVMINEAMAEAGIGCAVDTVNQLTGLEIDHFMMADFNAVKELSHAVGGVNVCVSDPVFDPDSRLRLAKGDSLVEGEQALAFLRTRHAFGDGGDLGRIKGQQAFLSSLTRKLKDEGTLGNPQRLLQIADVVTQNLTVDEGLASVPSLLTIGGRLKDIDVSKVAFVAVPTQAAAADINRLELIEPQASQLFAALRADLDLTTPGATAPPAPSESPAPQPTATTPPAPAYDKAIQPVAVANGSGVATRAQELMTVLTGNGFAQTVSYLANPVDQTVLYYGPGFADVAADVATLFGIPAAQVQEAPGVAGVQLYVGTDFSSGTAYGAASVPSDVVNQTANDAVCQQVNPLYIDQQ” stands “failed”; under “MRRRKAPVREVLGDPVYGNKVVTKFINKMMFDGKKSVAEKIIYKAFNKIEEKSGEKGIEVFEKALERVRPLVEVRSRRVGGATYQVPVEVRASRQQSLSIRWILEATRKRNERMMVDRLANELMDAASDKGAAFKKKEDVHKMAEANKAFAHYRW”, “failed”. For the sequence “MRRRRRRDGFYLAPDFRHREAEDMAGVFDIDLDQPEDAGSEDELEEGGQLNESMDHGGVGPYELGMEHCEKFEISETSVNRGPEKIRPECFELLRVLGKGGYGKVFQVRKVTGANTGKIFAMKVLKKAMIVRNAKDTAHTKAERNILEEVKHPFIVDLIYAFQTGGKPYLILEYLSG”, the protein production result is “not failed”.

As to “MRRSMRMNMSVASNIHSLLARLLPERVIAPPAPAGRRQRLFSGVGLPSQRSLLVNRLDEANDLQAVYVDLRRQALQGSVSALNDLGWIWLNGKYWRADTVLAGHLLRMAALQGNAAAWFNLGQQHYFGKGIDPSYVQAAECYRQAFDRGMLHAAAALGDLYEEEVCDGDLEWQVDLVQAYQWFLRGAEQGEARCRFEMGYRLMHGLHVEANLKAALYWLELAAAAGVVQAAEELAVHFSSRDAVRYQEWRDRAVQMGSTLALTMKLEDQIHP”, the protein production result is “failed”. Turning to “MRRTVRYILATSNPMGDLEALEKFVKLAPDTGADAIALIGNLMPKAAKSRDYAAFFRILSEAHLPTAYVPGPQDAPIWEYLREAANVELVHPEMRNVHETFTFWRGPYLVAGVGGEIADEGEPEEHEALRYPAWVAEYRLKALWELKDYPKIFLFHTMPYHKGLNEQGSHEVAHLIKTHNPLLVLVAGKGQKHEMLGASWVVVPGDLSEGEYSLLDLRARKLETGNVR”, the protein production entry is on record as “not failed”. Under “MRSDGRKEDQLRPVSIQRDFLEYPEGSCLISFGKTKVICTASVIENVPNWLKGKGQGWITAEYSMLPRATQQRTIRESVQGRIGGRTHEIQRMIGRAMRTAVELTKIGERTIWVDCDVIQADGGTRTAAITGAFVAVADAIIKLHKEGIIEETPIKDFVAAVSVGIVNDRILLDLNFEEDSAAQVDMNVVGTGSGRLSEVHTMGEEYSFTKDELIKMLDLAQKGINELIELQKKLYVIQDGKWERSELKEVSSTT” stands “not failed”; under “MRSGKIASEEYKDNPLTSCGTVRYWAAAKAAAGRHEETFTASTLSDLLEQVRQKYEGNAAMLAVLARSSFLVNATPVGVRPHHEVVLEPGWIVEVLPPFAGG”, “failed”.

“MRSIRLRVDWRATASLLGTVLKYLAVALLVPLTVAVIYWEDIWVFAVAIAITVTLGFTLERLDPEPDMGPAEALLLVTVSWLAVAMVGSVPYLLAGYGTASTLANPVNALFESMSGFTTTGATVMGEISTDQHSHALLLWRQLTQWLGGMGIIVLMIAILPELAVNGAQLMKTEAPGPELQKLTPRIAETARVLWLVYFGFTVLLAALLYGLHLAGFAPNMHLYNAVAHAFTTLPTGGFSPESDSIAAFSAVVQWVIIPFMVIAGTNFALFWHLLDGDIRTLLNDAEFRVYAGAIAVLSAILAALLYGGAAPAQELGGTTAGNTENALRQAAFQVGSLMNSTGFATSDFAQWGPTAQALLLFTMFVGGSAGSTGGGIKVIRWLVVMKAIRRELSVTARPEAVKPVRLGGYVVDEDVVRGIMVFTLLYLALFGAATVFFAVDSLRVGYELSVLEAMSASIATLGNIGPGFGMLGPFGSYLGFPPETKIVMVFLMWVGRLEIIPVLAVFTGAFWKR”: the protein production entry was “failed”. As to “MRSNHLPCWHTGPLSTLNVRPHLARAWHPLVCIYQRCLATALPTAPAVDSYCISTEIPYYDLVGRLGGKGPSKQTFTMQMLFHKKQRTPLGFCDGLDNVFVGFGSKDEKGCRPPKYHASYAPYYPIHKAASMGDVNTVKSFVERGVFAMEQTDWKYRTALHFACVYGHPEVVTLLVESSCEISPKDIKDATPLIKASQCRQTECLNILLKHGADPNIMDCSDNTALHYAVYNGDIETATKLLEYKANIEAINENKITPLLLALKQNKEKMAEFLIHNGANAKTCDFLGRSSLMYAVRCGSELIIKLLLQRDIDTFKQDVFGWTAKRYAVESKSRVRKLLIDYDEEELRQRCSVPKLSSSSLKELCLDSHYDRNTNISNTGKTREKFSQCTLWEEEHPILPTVKVKDSPRSEAVEKAEARPSKSESNEEDTCTTPTLPTTKVKDPSQSEAVEKAEARPSKSGKLTV”, the protein production result was “failed”.

Consider “MRSNYAKKLVAGTLVASMTITASMPLFADELATEIPSAGAAVIVEDYINNSGKETDIEKLLPTEATDSTATANETTKTENQTEKTQTSNTATSSEDKLFANIAITKVSGGAEDYVNVRKKPTTESKVVGKIYNNSGAKILEKTNNGWYKIVSGNCTGYIKSDFFVTGSSAKSRALDNGYVQAEAKDAIHVRAEASTNSKVVTNVYKNETYTIKKFDKTGEWIKVKIKAGVSGWISAQYANVNINMETAITRKIEKAKIKKEREAAKAAAKAAAEEEARKQAEQQEQQASNDNSQSSSDGTYSNSSNSSSRSNYSNSSSSSSSSSSSSSSSSSKKSHSSSSSSSSGSGTGAAIVAYAKQFLGNPYVYGGASLTNGTDCSGFTMSVYAHFGYGLSRSSYTQVNNGRAVSMSSLQPGDLLFYKYGGSTISHVAIYIGGGQIIHASTEETGIIISGMGSPCAARRIIG”, for which the protein production result is given as “failed”. For “MRSPIKLEFSEKYDKDHAREYFLKHQDGLARRLSHKRDEQLARRALALAGEPGLVLDLPCGAGRFWPLLAEKPNRVIIGADNSEAMIETACAAQPPEVVARVRPLQTSAFAIDLPDNAVDSIFCMRLFHHIGESAHRKTILSEFQRVSRDSVILSLWVDGNFKAWRRKKLEQRRSAKAEQDNYQNRFVLPAETVEEEFRAAGFRIQERLDFLPFYAMWRVYVLRKG”, the protein production result is on record as “failed”. Under “MRSTKIVCTVGPRTDSYEMIEKMIDLGVNVFRINTSHGDWNEQEQKILKIKDLREKKKKPVAILIDLAGPKIRTGYLEKEFVELKEGQIFTLTTKEILGNEHIVSVNLSSLPKDVKKGDTILLSDGEIVLEVIETTDTEVKTVVKVGGKITHRRGVNVPTADLSVESITDRDREFIKLGTLHDVEFFALSFVRKPEDVLKAKEEIRKHGKEIPVISKIETKKALERLEEIIKVSDGIMVARGDLGVEIPIEEVPIVQKEIIKLSKYYSKPVIVATQILESMIENPFPTRAEVTDIANAIFDGADALLLTAETAVGKHPLEAIKVLSKVAKEAEKKLEFFRTIEYDTSDISEAISHACWQLSESLNAKLIITPTISGSTAVRVSKYNVSQPIVALTPEEKTYYRLSLVRKVIPVLAEKCSQELEFIEKGLKKVEEMGLAEKGDLVVLTSGVPGKVGTTNTIRVLKVD” stands “not failed”.

On to “MRSVRKRTVLVSTLLALVLTQVARADDKGSHPAVIGDVHFKVECNATAQAKFNVAVAYYHSFQWQRVIATADDVLKVDPTCGMAHWVKALAMLDNPFAWPVTLSEKAIAEGPVLLDAARKAGLKTQRERDYVDALAIFFKDLNTTNYRERAESFEKAMAQLAQQNADDSEATVLYALILSRNFDPTDKTYRNQLHAAELLEPIFAREPNHPGVAHYLIHSYDYPPLAKRGIDAARKYAKIAPDTPHSLHMPSHIFTLTGFWQESIDTNRRAAEMADDSITHDGHHASDYMVYAHLQLGQDLAARKIMEQEQVRHGIDMIGVAYPYAAIPARIALERRAWREAADLPLYARDTYPWKKYPQAEAVNAFARGVGSAMSGEPAKANFEAKRLIKLRDAATAMKLNYWADQIDIQAEVVRGLADFAEGKRDEGIAILHRAAEREDASAKNVVTPGPVVPAREMLATILERDRKPADALAEFEKVLEQHPNRYRTIAGAAQNAKQAGNEQKADHYAELLLKLAEHADSPRPEIAEAKSMLGM”, for which the protein production entry is recorded as “failed”. For “MRTICVFNNKGGVGKTTLLCNLAAYFSIKRGKKVLVVDADPQCNATAYMIKEKVLDKLYASSSSDSATINSLIASLKKSKGYGIPPVLRSDGFNVDIVPGDPKFSLAEDFLAKDWLDAIAGDERGLRTTFFFRNLISWARSDGYDLVFFDMGPSLGAINRTVLLSSDHFILPMSSDIFSLRGLQNIEVALKNWTKGIERGLVSFKEDQGTSFKVESGDALSELGVSFLGYVTQQYTAKTVDGKKQPVSAYEKIIKKIDPLVSKHLILPLNKGQKLNYKLGEIPYFQSLVPMAQTATVPIFALKKADGVVGAHFDKVRQFDSVISGIVDKIEANMNSKGN”, the protein production result is “failed”. “MRTLGIIGFGGFGQFMVKHLQPYISVTVHDLTDLSHIAAEHKVEWGTLQETASKDIVILAVPVQFLESLLLEIKDYLKAEALIVDVSSVKVKPIELMLKHLPLTVDILGTHPLFGPQSGKNGIKGLNMVVCPVRSKKMRAITHFLRNVIQLNVLERTPETHDKQMAYVQALTHFIGRSINEMDIPDVEQKTPAYQYLLDIKRNLGGDSMDLFLTIELENPYAKKVREEFMGALKSLNDRLEHIKR”: the protein production result is listed as “failed”. Take “MRTLLFLHLLGAAIWVGGHLVLALGILPGALRRRDPQAIRAFEQVYERIGIPALLLQVVSGLWLASLWLPFDHWFGATPVARALQLKLLLLAATAALGVHARLRLIPNLDAESLPKLGWHIAAITLVGLGFVAVGQSFRFGGAF”: the protein production entry is listed as “failed”.
